Experiments:
[1] = target: Biotinylated MPER peptide (HIV-1); experiment: BLI; biotinylated MPER peptide (30 nM) loaded on streptavidin biosensors to 0.6 nm, Octet RED96; Fabs at 50 and 100 nM; 0.5% BSA in PBS with 0.05% Tween 20; association 5 min, dissociation 10 min; values of the two concentrations averaged
recombinant FcγRI = recombinant FcγRI (UniProt P12314); experiment: ELISA; details: highest mAb concentration, about 200 nM (est. from x axis); parent: est. 0.73; read off a plot
Chain of UniProt P12314 (P12314 16-292): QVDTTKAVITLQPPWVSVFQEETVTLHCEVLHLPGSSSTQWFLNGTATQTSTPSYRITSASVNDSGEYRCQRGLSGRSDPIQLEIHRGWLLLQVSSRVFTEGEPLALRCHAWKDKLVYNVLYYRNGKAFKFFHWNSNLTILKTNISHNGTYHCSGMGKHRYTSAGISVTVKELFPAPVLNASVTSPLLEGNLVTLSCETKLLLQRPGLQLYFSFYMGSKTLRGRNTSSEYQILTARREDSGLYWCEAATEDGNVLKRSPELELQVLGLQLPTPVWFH

response (Absorbance at 450nm) (recombinant FcγRI)	Substance	Kd [1]	koff [1]
–	10E8 Fab	3.8 nM	0.0016 s⁻¹
0.05	10E8v4 WT antibody (IgG) L234A; L235A; P329G	–	–
